This note sets out measurements from US8299032B2, “Self-assembling peptide and gel produced from the same” (Menicon Co., Ltd., priority 2005, dated 2012).

Format in all cases: physicochemical
Data set [1] is described as follows: Gel formation, test tube placed up-side-down. Also on record: key to Gel Formation: Excellent: those in which the contents did not drop off were evaluated as the gel formation being “excellent”; Poor: those in which the contents dropped off were evaluated as being “poor.”. Particulars: 37° C. for 24 hours; for Gel Formation: peptide 0.5% by weight; for gel formation in neutral aqueous solution (summary of Table 11): neutral aqueous solutions, 0.5% by weight. The procedure:
Peptide Nos. 1, 2, 4, 5, 6, 10 and 11 synthesized in Production Examples 1 and 2 were dissolved in each of aqueous solutions listed in Table 11. A 1.5 mL test tube was charged with 1 mL of the resulting peptide-containing aqueous solution. Next, the test tube was allowed to stand at 37° C. for 24 hours.

Data set [2] is described as follows: Visible light transmittance of peptide gel (380 to 780 nm). The note with it: for decreasing ratio of visible light transmittance: after 2 months at room temperature versus before storage; for visible light transmittance (average) after standing: gel allowed to stand at room temperature for 2 months; for Visible Light Transmittance (average, 380 to 780 nm): gel of 0.5% by weight peptide in 0.1 M Tris-HCl (pH 7.5), optical path length 10 mm; for long-term stability of gel (no white turbidity): room temperature, 2 months. An excerpt: In a case where the gel of the present invention is used, for example, as a scaffold for a three-dimensional culture of the cells, it is desired that the used concentration of the self-assembling peptide of the present invention upon gel formation in a medium for cell culture is preferably 0.3% by weight or more, and more preferably 0.5% by weight or more, from the viewpoint of easiness in gel formation, and that the used concentration of the peptide is preferably 5% by weight or less, and more preferably 2% by weight or less, from the viewpoint of easy miscibility with the cells. In addition, in such a case, it is preferable that the gel is transparent, from the viewpoint of easiness in cell observation with a fluorescent microscope or the like. For example, in a gel containing 0.5% by weight of a self-assembling peptide, it is desired that the visible light transmittance which is determined in terms of absorbance at 380 to 780 nm in a cell having an optical path of 10 mm is at least 50%/cm, and it is desired that the visible light transmittance is preferably 70%/cm or more, and more preferably 90% 1 cm or more. Further, it is desired that the visible light transmittance of the gel after allowing it to stand at room temperature for a long period of time, for example, 2 months, is preferably 50%/cm or more, more preferably 70%/cm or more, and even more preferably 90%/cm or more, from the viewpoint of long-term stability of the gel, and that the decreasing ratio (%) of the visible light transmittance (100−(visible light transmittance after storage/visible light transmittance before storage×100)) is preferably 30% or less, more preferably 20% or less, and even more preferably 10% or less. The transparency of the gel can be determined with UV/VIS measurement apparatus as described in Examples set forth below.
Peptide Nos. 1 to 9 synthesized in Production Examples 1 and 2 were dissolved in 0.1 M Tris-HCl (pH 7.5), to prepare a gel composed of a 0.5% by weight peptide solution. The visible light transmittance of the prepared gel within the range of from 380 to 780 nm was determined using a cell having an optical path length of 10 mm and trade name V-550 UV/VIS Spectrometer (manufactured by JASCO).
Therefore, it could be seen that each of Peptide Nos. 1 to 9 mentioned above formed a transparent gel. In addition, of the above gels, the gel comprising each of Peptide Nos. 1, 4, 6, or 7 was allowed to stand at room temperature for 2 months, and the visible light transmittance was determined in the same manner as above. As a result, an average thereof was respectively 88, 87, 91, or 93%/cm, and the decreasing ratio was respectively 9.3, 5.4, 6.2, or 4.1%. In other words, the gel after 2 months passed from the preparation also maintained high visible light transmittance.

Data set [3] in a line: Confirmation of beta-sheet structure formation by circular dichroism measurement. Particulars: 3×10^−3 M peptide in 0.1 M Tris-HCl (pH 7.5). The protocol:
The formation of each of the beta (β)-sheet structures of Peptide Nos. 1 to 9 and 12 synthesized in Production Examples 1 and 2 mentioned above was confirmed in accordance with circular dichroism measurement method. Concretely, each of the peptides was dissolved in 0.1 M Tris-HCl (pH 7.5) to prepare a 3×10^−3 M peptide solution. The resulting peptide solution was filled into a quartz cell having an optical path length of 0.5 mm (manufactured by JASCO, trade name: 110J cylindrical cell, volume: 0.04 mL), and the quartz cell was set in trade name J-820K Spectropolarimeter (manufactured by JASCO), and the molar ellipticities at 195 to 260 nm for the peptide solutions were determined in accordance with the circular dichroism measurement method.
For orientation: Circular dichroism is widely used to follow secondary structure.

Take “RASARADARADARASA (Synthetic self-assembling peptide of the invention) [Peptide No. 4, self-assembling peptide of the present invention]”: the “Gel Formation” value in data set [1] (PBS pH 7.4), in data set [1] (Tris-HCl 0.05 M pH 7.5), in data set [1] (Tris-HCl 0.1 M pH 7.5), in data set [1] (Tris-HCl 0.2 M pH 7.5), in data set [1] (Tris-HCl 0.4 M pH 7.5) and in data set [1] (Tris-HCl 0.6 M pH 7.5) was “Excellent” in each case. Besides, the “Gel Formation” value in data set [1] (Tris-HCl 0.8 M pH 7.5) and in data set [1] (Tris-HCl 1 M pH 7.5) was “Excellent” throughout. Moreover, the “gel formation in neutral aqueous solution (summary of Table 11)” value (shortened to “gel formation … (summary of Table 11)”) in data set [1] is given as “formed into gel in various neutral aqueous solutions”. Also, the “decreasing ratio of visible light transmittance” value (“decreasing ratio” for short) in data set [2] was 5.4%. In addition, the “visible light transmittance (average) after standing” value in data set [2] is recorded as 87 %/cm. Moreover, the “Visible Light Transmittance (average, 380 to 780 nm)” value in data set [2] is 92%. In addition, the “long-term stability of gel (no white turbidity)” value in data set [2] was “stable for a long period of time without becoming white turbid”.
On to “SAEAKAEASAEAKAEA (Synthetic self-assembling peptide of the invention) [Peptide No. 9, self-assembling peptide of the present invention]”, for which, in data set [2], the “Visible Light Transmittance (average, 380 to 780 nm)” value amounted to 93%.
In the case of “RAAARADARAAARADA (Synthetic self-assembling peptide of the invention) [Peptide No. 3, self-assembling peptide of the present invention]”, the “Visible Light Transmittance (average, 380 to 780 nm)” value in data set [2] was determined as 91%.
For “RFDFRFDFRFDFRFDF (Synthetic peptide which is not a peptide of the invention) [compound 11, comparative peptide, which is not self-assembling peptide of the present invention; charge at pH 7.0 is 0, reference compound]”, in data set [1] (PBS pH 7.4), the “Gel Formation” value was “Poor”. For the same sequence, the “gel formation … (summary of Table 11)” value in data set [1] is on record as “did not form into gel in a neutral aqueous solution”.
Take “RASARADARASA (Synthetic self-assembling peptide of the invention) [Peptide No. 7, self-assembling peptide of the present invention]”: in data set [2], the “decreasing ratio” value stood at 4.1%; the “visible light transmittance (average) after standing” value is reported as 93 %/cm; the “Visible Light Transmittance (average, 380 to 780 nm)” value is on record as 97%; the “long-term stability of gel (no white turbidity)” value is on record as “stable for a long period of time without becoming white turbid”.
“RASARADARASARADA (Synthetic self-assembling peptide of the invention) [Peptide No. 1, self-assembling peptide of the present invention]”: the “Gel Formation” value in data set [1] (D-MEM/F12(1:1) Medium pH 7.5), in data set [1] (PBS pH 7.4), in data set [1] (Tris-HCl 0.05 M pH 7.5), in data set [1] (Tris-HCl 0.1 M pH 7.5), in data set [1] (Tris-HCl 0.2 M pH 7.5) and in data set [1] (Tris-HCl 0.4 M pH 7.5) was “Excellent” each time. Further, the “Gel Formation” value in data set [1] (Tris-HCl 0.6 M pH 7.5), in data set [1] (Tris-HCl 0.8 M pH 7.5) and in data set [1] (Tris-HCl 1 M pH 7.5) was “Excellent” in each case. Moreover, in data set [1], the “gel formation … (summary of Table 11)” value is “formed into gel in various neutral aqueous solutions”. The “decreasing ratio” value in data set [2] is recorded as 9.3%. Also, the “visible light transmittance (average) after standing” value in data set [2] worked out at 88 %/cm. In addition, in data set [2], the “Visible Light Transmittance (average, 380 to 780 nm)” value was 97%. In addition, the “long-term stability of gel (no white turbidity)” value in data set [2] is recorded as “stable for a long period of time without becoming white turbid”.
In the case of “RADARASARASARADA (Synthetic self-assembling peptide of the invention) [Peptide No. 5, self-assembling peptide of the present invention]”, in data set [1] (Tris-HCl 0.1 M pH 7.5), the “Gel Formation” value was “Excellent”. In addition, in data set [1], the “gel formation … (summary of Table 11)” value was “formed into gel in various neutral aqueous solutions”. Moreover, the “Visible Light Transmittance (average, 380 to 780 nm)” value in data set [2] is recorded as 78%.
Taken in the same sequence, the figures for “RANARADARANARADA (Synthetic self-assembling peptide of the invention) [Peptide No. 2, self-assembling peptide of the present invention]” were “Excellent”, “formed into gel in various neutral aqueous solutions” and 77%.
In the case of “RASARASARASARADA (Synthetic self-assembling peptide of the invention) [Peptide No. 6, self-assembling peptide of the present invention]”, the “Gel Formation” value in data set [1] (Tris-HCl 0.1 M pH 7.5) is listed as “Excellent”. In data set [1], the “gel formation … (summary of Table 11)” value was “formed into gel in various neutral aqueous solutions”. For the same sequence, in data set [2], the “decreasing ratio” value stood at 6.2%; the “visible light transmittance (average) after standing” value is listed as 91 %/cm; the “Visible Light Transmittance (average, 380 to 780 nm)” value is listed as 97%; the “long-term stability of gel (no white turbidity)” value is “stable for a long period of time without becoming white turbid”.
“HKHQHDHKHQHDHKHQHD (Synthetic peptide which is not a peptide of the invention) [Peptide No. 12, peptide not having a nonpolar amino acid residue, not a peptide of the present invention]”: the “formation of beta (β)-sheet structure in aqueous solution” value in data set [3] is recorded as “did not form a beta(β)-sheet structure”.
For “KASAKAEAKASAKAEA (Synthetic self-assembling peptide of the invention) [Peptide No. 8, self-assembling peptide of the present invention]”, the “Visible Light Transmittance (average, 380 to 780 nm)” value in data set [2] is 94%.
